Four proteins from PMC8096283 (Nucleic Acids Research, 2020) can be followed below.

The data set concerns the molecule itself. Put plainly: magnetic tweezers force spectroscopy.

B1: HMfB_(D14A K30A E34A) (natural protein)
chain: not shown
B1: the stacking energy was 1.07 kBT.

B2: HMfA_(K31A E35A) (natural protein)
chain: not shown
Protein B2 had a stacking energy of 1.18 kBT.

B3: HMfB homodimer (Methanothermus fervidus histone HMfB) (natural protein)
chain: not shown
Turning to B3, the stacking energy is 3.44 kBT.

B4: HMfA homodimer (Methanothermus fervidus histone HMfA) (natural protein)
chain: not shown
With B4, the stacking energy was 1.81 kBT.
